Results published in doi:10.1101/2024.08.29.610253, “Liprin-α/RIM complex regulates the dynamic assembly of presynaptic active zones via liquid-liquid phase separation” (bioRxiv, 2024).

Target: the molecule itself
Assay: SEC-MALS; Superdex 200 Increase 10/300 GL in TBS (20 mM Tris pH 8.0, 100 mM NaCl, 1 mM EDTA, 1 mM DTT); individual proteins or mixture, up to 500 μM

B1: liprin-α2_CC2 (domain or fragment, human, UniProt O75334 259-542, looked up)
chain: GSIDSTDETSQIVELQELLEKQNYEMAQMKERLAALSSRVGEVEQEAETARKDLIKTEEMNTKYQRDIREAMAQKEDMEERITTLEKRYLSAQRESTSIHDMNDKLENELANKEAILRQMEEKNRQLQERLELAEQKLQQTMRKAETLPEVEAELAQRIAALTKAEERHGNIEERMRHLEGQLEEKNQELQRARQREKMNEEHNKRLSDTVDRLLTESNERLQLHLKERMAALEEKNVLIQESETFRKNLEESLHDKERLAEEIEKLRSELDQLKMRTGSLIEP
notes: liprin-α2, human, GenBank AF034799.1, CC2 region, residues 259-542; Dimeric by SEC-MALS at 500 μM; source: E. coli BL21(DE3), purified (Ni-NTA, SEC)
stoichiometry N: 2
